The text below walks through data of publication PMC7006624.

Some results are limits rather than exact numbers.

What all share (assay): fluorescence polarization
(In general: Fluorescence polarisation rises when a labelled molecule tumbles more slowly, as on binding a larger partner.)

The subject of data set [1] is AZ-CLIP (AZP4-CLIP-tag fusion) (designed). The settings on record: no added NaCl; amino-C6-T (second T of TTTT loop); 40 mM Tris-HCl, 20 mM acetic acid, 12.5 mM MgCl2, 1 mM DTT, 1 uM ZnCl2, 100 nM calf thymus DNA, 0.02% Tween 20, pH 8.0, 25 C, with or without 200 mM NaCl.
The target in data set [2] is CLIP-G (CLIP-tag-GCN4 bZIP fusion) (UniProt P03069). The settings on record: no added NaCl; amino-C6-T (second T of TTTT loop); 40 mM Tris-HCl, 20 mM acetic acid, 12.5 mM MgCl2, 1 mM DTT, 1 uM ZnCl2, 100 nM calf thymus DNA, 0.02% Tween 20, pH 8.0, 25 C, with or without 200 mM NaCl.
The target of data set [3] is ZF-CLIP (zif268-CLIP-tag fusion) (UniProt P08046). The settings on record: amino-C6-T (second T of TTTT loop), 40 mM Tris-HCl, 20 mM acetic acid, 12.5 mM MgCl2, 1 mM DTT, 1 uM ZnCl2, 100 nM calf thymus DNA, 0.02% Tween 20, pH 8.0, 25 C, with or without 200 mM NaCl.
Chain of ZF-CLIP (zif268-CLIP-tag fusion) (P08046 other isoform, or with tags, fused parts or gaps): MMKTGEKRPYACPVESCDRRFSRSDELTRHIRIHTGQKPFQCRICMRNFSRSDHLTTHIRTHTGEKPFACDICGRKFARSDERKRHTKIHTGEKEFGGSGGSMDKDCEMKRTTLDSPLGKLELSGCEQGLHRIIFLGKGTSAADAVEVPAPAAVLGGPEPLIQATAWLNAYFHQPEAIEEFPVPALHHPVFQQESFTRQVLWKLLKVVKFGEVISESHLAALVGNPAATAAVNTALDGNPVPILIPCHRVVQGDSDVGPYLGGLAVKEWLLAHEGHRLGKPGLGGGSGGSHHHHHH

Turning to “CGCGACGCCCACGCGCGTTTTCGCGCGTGGGCGTCGC [A488-ODN-ZF]”, the Kd (commonly the constant that tells how readily two partners part at equilibrium) was > 1 µM in data set [1], > 1 µM in data set [2], 0.056 µM in data set [3] and 0.0081 µM in data set [3] (no added NaCl).

As to “CGCGATGCCACGTAGCGTTTTCGCTACGTGGCATCGC [A488-ODN-AZ]”, the Kd in data set [1] was 0.074 µM; in data set [2], > 1 µM; in data set [3] (no added NaCl), > 1 µM.

On to “CGTTCATGACTCATGAGTTTTCTCATGAGTCATGAAC [A488-ODN-AP]”, for which the Kd is 0.0051 µM in data set [2] and > 1 µM in data set [3] (no added NaCl).
